These results are taken from publication PMC7846606.

By stoichiometry N is commonly meant a count of units in the complex or per binding partner.

The target in the test is PRC2:EZH1 (EZH1, EED, SUZ12, RBAP48, AEBP2 and JARID2) (UniProt Q92800). The test is described as follows: SEC-MALS; TSKgel G4000SWxl, 20 mM Tris-HCl pH 7.5, 300 mM NaCl, 1 mM DTT, 0.5 ml/min; complexes at 1.25 mg/ml, 30 μl injected. In general terms: In gel filtration, larger molecules generally elute earlier.

Regarding “PRC2:EZH1 (EZH1, EED, SUZ12, RBAP48, AEBP2 and JARID2) (from UniProt Q92800 1-747; Q15022 1-739; O75530 1-441; Q09028 1-425; Q6ZN18 209-503; Q92833 1-1246) (complex)”, the stoichiometry N was 2.
